Article PMC5018249

What was measured:
[1] = target: BG505 SOSIP.D664 (HIV-1 strain BG505); assay: SEC-MALS + other: negative-stain electron microscopy; in-house purified BG505 SOSIP trimers, thawed and analysed
[2] = target: BG505 SOSIP-GT3-PADRE (HIV-1 strain BG505); assay: SEC-MALS; purified immunogen in solution; conditions not given

Question: BG505 SOSIP.D664 (domain or fragment) was tested. Which stoichiometry N [1] did it give?
Answer: 3

Question: BG505 SOSIP-GT3-PADRE was tested. Which stoichiometry N [2] did it give?
Answer: 3
